The test addresses GFP1-10 tagged with MCP, with nuclear localization sequences. The experiment in a line: P3 editing (protein-protein proximity joins crRNA-MS2 and BoxB-petracrRNA; prime editing read by amplicon sequencing); HEK293T cells; 12 designs of crRNA-MS2/BoxB-petracrRNA that vary the upper 4 bp of the Cas9-binding region of the repeat:anti-repeat duplex; tagged split-GFP against standard untagged GFP as background; normalized to the eCTT control.

1 substance from article PMC11820115 can be followed below.

“GFP11 tagged with LambdaN, with nuclear localization sequences (peptide)” showed a normalized editing efficiency (GAUA:UAUC design) of 3.8%.
